# Laboratory results published in patent US10233249B2, “Antibodies and methods for treating estrogen receptor-associated diseases” (BEIJING SHENOGEN PHARMA GROUP LTD., priority 2013, dated 2019).
# “Also recorded” adds a separate entry of the source.
# T1: biotinylated GV27 peptide (ER-α36) (Homo sapiens, UniProt P03372)
# T1 sequence (P03372 284-310 isoform P03372-4 limits assumed): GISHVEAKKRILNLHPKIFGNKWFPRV
# T2: ER-α36 protein in human tumor tissues (Homo sapiens, UniProt P03372)
# T2 construct: from tissue; host or cells: paraffin sections of breast cancer patients' tissue
# T2 sequence (P03372 1-310 isoform P03372-4): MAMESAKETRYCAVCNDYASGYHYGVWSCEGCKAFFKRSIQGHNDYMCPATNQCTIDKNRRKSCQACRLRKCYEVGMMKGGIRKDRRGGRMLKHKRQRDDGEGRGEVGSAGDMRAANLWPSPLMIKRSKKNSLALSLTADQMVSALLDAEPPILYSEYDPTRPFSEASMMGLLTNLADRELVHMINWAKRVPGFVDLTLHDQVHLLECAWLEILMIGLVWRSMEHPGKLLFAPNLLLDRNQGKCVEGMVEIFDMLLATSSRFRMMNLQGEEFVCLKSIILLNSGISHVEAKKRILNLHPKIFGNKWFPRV
# T3: ER-α36 expressed on cell surfaces of MCF7 cells (Homo sapiens, UniProt P03372)
# T3 construct: endogenous in cells; host or cells: K562, MCF7, SKBR3, MHCC97H
# T3 sequence (P03372 1-310 isoform P03372-4): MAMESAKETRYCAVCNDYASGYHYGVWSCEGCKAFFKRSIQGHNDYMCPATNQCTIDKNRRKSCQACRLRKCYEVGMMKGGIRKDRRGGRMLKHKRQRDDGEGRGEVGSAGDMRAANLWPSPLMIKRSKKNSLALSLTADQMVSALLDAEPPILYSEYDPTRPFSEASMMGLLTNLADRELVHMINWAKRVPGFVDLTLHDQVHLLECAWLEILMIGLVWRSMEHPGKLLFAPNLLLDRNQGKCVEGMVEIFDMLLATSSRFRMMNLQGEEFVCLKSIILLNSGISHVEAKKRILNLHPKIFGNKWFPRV
# T4: ER-α36 expressed on cell surfaces of MHCC97H cells (Homo sapiens, UniProt P03372)
# T4 construct: endogenous in cells; host or cells: K562, MCF7, SKBR3, MHCC97H
# T4 sequence (P03372 1-310 isoform P03372-4): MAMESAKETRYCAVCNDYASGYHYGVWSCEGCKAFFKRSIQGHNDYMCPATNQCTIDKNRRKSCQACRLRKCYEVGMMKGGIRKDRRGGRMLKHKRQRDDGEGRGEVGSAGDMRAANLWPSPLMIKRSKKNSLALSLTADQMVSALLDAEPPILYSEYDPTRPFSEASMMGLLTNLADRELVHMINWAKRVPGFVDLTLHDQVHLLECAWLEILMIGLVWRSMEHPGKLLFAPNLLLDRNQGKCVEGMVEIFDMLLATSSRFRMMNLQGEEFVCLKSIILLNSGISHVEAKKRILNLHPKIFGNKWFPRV
# T5: ER-α36 expressed on cell surfaces of SKBR3 cells (Homo sapiens, UniProt P03372)
# T5 construct: endogenous in cells; host or cells: K562, MCF7, SKBR3, MHCC97H
# T5 sequence (P03372 1-310 isoform P03372-4): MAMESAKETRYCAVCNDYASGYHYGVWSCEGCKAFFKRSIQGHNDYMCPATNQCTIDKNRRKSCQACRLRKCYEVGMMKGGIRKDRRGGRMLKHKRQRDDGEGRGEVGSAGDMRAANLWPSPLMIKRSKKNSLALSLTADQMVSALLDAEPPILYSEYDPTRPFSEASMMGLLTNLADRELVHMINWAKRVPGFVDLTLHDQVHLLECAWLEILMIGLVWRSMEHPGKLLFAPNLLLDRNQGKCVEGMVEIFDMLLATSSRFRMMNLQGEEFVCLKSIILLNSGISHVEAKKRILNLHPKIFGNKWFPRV
# Legend:
# [1] = target: T1, biotinylated GV27 peptide (ER-α36); experiment: Competition ELISA; format: binding
# Method: The antigen (biotinylated GV27 peptide) was added along with different amount of the competing mouse antibody, the ELISA plates were then allowed to incubate for equilibrium before wash. Streptavidin-HRP (Sigma, S2438, 1:5000) and TMB substrate (Biopanda, China) were added and OD450 was measured on a plate reader. IgG were tested in parallel as control antibody.
# [2] = test system: 4T1-ER-α36 positive cells; experiment: 4T1-ER-α36 lung tumor metastasis model; format: in vivo, nude mice
# Method: FACS-sorted 4T1-ER-α36 positive cells (ATCC) (5*10^4) were injected in the nude mice via tail vein. Average 20 mg/kg body SNGmB1 or control IgG (20 mg/kg body weight) was administered by tail vein injection every 3 or 4 days for 18 days, and tamoxifen (1 mg/kg body weight) was intragastric administrated synchronously. […] Representative immunohistochemical images showing ALDH1 in lung metastatic foci with tamoxifen administrated tumor-bearing nude mice respectively after control IgG and SNGmB1 antibody treatment. Hematoxylin was used for counterstaining. Seen from FIG. 26a and FIG. 26b, it is illustrated that ALDH1 is decreased after SNGmB1 injection. scale bars 50 μm.
# [3] = test system: BCAP37 breast cancer xenograft; experiment: BCAP37 breast cancer xenograft model; format: in vivo; settings: NOD-SCID mice, 1.25, 5 and 20 mg/kg SNGmB1, 3 mg/kg Herceptin, 17 days
# Method: The ability of anti-ER-α36 antibody in inhibiting human tumor cell growth in Xenograft model was assessed using BCAP37 breast cancer model. […] The cells were implanted into NOD-SCID mice. […] After 17 days of treatment, the tumors were excised, and both tumor weight and volume were measured.
# [4] = target: T2, ER-α36 protein in human tumor tissues; experiment: Immunohistochemistry (IHC) of human tissue samples; settings: paraffin tissue of breast cancer patients
# Method: Immunohistochemistry (IHC) assay was used to evaluate the ability of utilizing a specific antibody like SNGmB1 to better detect the presence of ER-α36 in human tissue samples. 4 μm thick paraffin tissue blocks of breast cancer patients were de-paraffinized by immersing in the xylene for twenty minutes twice, followed by rehydrating sequentially in 99%, 90%, 85%, 75%, 50% ethanol for 5 minutes each. The tissue sections were then washed three times with PBS. Antigen retrieval was then performed by heating in 95° C. citrate (pH 6.0) buffer for 15 minutes in microwave. Once cooled to room temperature, the sections were then washed with PBS three times, and incubated with 3% hydrogen peroxide for 20 minutes at room temperature, followed by washing with PBS. […] Upon washing with PBS five times, pre-diluted secondary antibody (ZSGB-Bio, Cat# PV-6000) was added and incubated for 20 minutes at room temperature. The sections were then washed with PBS and incubated with DAB solution for 2-5 minutes, followed by rinsing in distilled water for 5-10 minutes. The sections were then counter-stained in hematoxylin (ZSGB-BIO, Cat# ZLI-9609), followed by rinsing sequentially in 50%, 75%, 85%, 90% and 99% A ethanol to dehydrate. The sections were then cleared in xylene and sealed with neutral balsam before evaluated with microscope.
# [5] = target: T3, ER-α36 expressed on cell surfaces of MCF7 cells; experiment: FACS analysis of binding to cell surface ER-α36; settings: mouse IgG2b isotype control
# Method: (§1) Also examined were the binding of SNGmB1 to a series of human cancer cell lines including K-562 cell, a cell line derived from chronic myeloid leukemia patient; MCF7: a breast cancer cell line expressing both ER-α66 and ER-α36; SKBR3 (ATCC): a breast cancer cell line expressing high levels of HER2; and MHCC97H (ATCC): a highly metastatic hepatocellular carcinoma cell line.
# (§2) These cell lines (K562, MCF7, SKBR3, MHCC97H) were cultured in their respective medium to 90% confluence and then the cells were washed with PBS, followed by pretreatment with 0.5 mM EDTA (adherent cell lines) to facilitate removal from substrate. The cells are then collected and centrifuged at 2500 rpm for 5 minutes at 4° C. After counting the cell number, the cells were then resuspended in the block buffer (10% normal goat serum, Invitrogen) to a final concentration of 5-10×10^6 cells/ml, and 100 μl of cells (5×10^5) were transferred to a 1.5 ml EP tube for staining. All those tubes (cells in block buffer) were then laid in a revolver (Grant) for 30 minutes at 4° C. After that the cells were centrifuged at 2500 rpm for 5 minutes at 4° C., the supernatant was discarded, 100 μl of the primary antibody was then added to (1-30 μg/ml final concentration, SNGmB1 or mouse IgG2b isotope control) and incubated in a revolver at 4° C. for 1 hr. The cells were then collected by centrifugation at 2500 rpm for 5 minutes at 4° C. and washed 2 times with PBS solution. The goat anti mouse IgG (H+L) FITC secondary antibody (Invitrogen) were then added at a dilution range of 1:400-800 followed by incubation in a revolver at 4° C. for 1 hr and kept in dark. Following this incubation, free antibody was the removed by washing the cells twice with PBS and the cells were then fixed in 1% paraformaldehyde at room temperature for 10 min and before resuspending the cells in 200-400 μl PBS with 5 μl 7-AAD (BD Biosciences) added for final flow cytometric analysis.
# (§3) In FIG. 5A, the “Geom. Mean” refers to Geometric mean fluorescence intensity. […] The cell line was incubated with the SNGmB1 antibody and the binding was tested, according to the similar procedure described above. Mouse IgG2b was used as isotype control.
# [6] = target: T4, ER-α36 expressed on cell surfaces of MHCC97H cells; experiment: FACS analysis of binding to cell surface ER-α36; settings: mouse IgG2b isotype control
# Method: as §1, §2, §3
# [7] = target: T5, ER-α36 expressed on cell surfaces of SKBR3 cells; experiment: FACS analysis of binding to cell surface ER-α36; settings: mouse IgG2b isotype control
# Method: as §1, §2, §3
molecule,measurement,setting,value
"SNGmB1: mouse monoclonal anti-ER-α36 antibody (mIgG2b), light chain SEQ ID NO: 16, heavy chain SEQ ID NO: 18 (antibody, listed as Mus musculus) heavy: QAYLQQSGAELVRPGASVKMSCKASGYTFTSHNMHWIKQTPRQGLEWIGAIHPVNGDTAYNQKFKGKATLTVDKSSSTAYLQLSSLTSEESAVYFCAREGYGSVDYWGQGTTLTVSSAKTTPPSVYPLAPGCGDTTGSSVTLGCLVKGYFPESVTVTWNSGSLSSSVHTFPALLQSGLYTMSSSVTVPSSTWPSQTVTCSVAHPASSTTVDKKLEPSGPISTINPCPPCKECHKCPAPNLEGGPSVFIFPPNIKDVLMISLTPKVTCVVVDVSEDDPDVQISWFVNNVEVHTAQTQTHREDYNSTIRVVSTLPIQHQDWMSGKEFKCKVNNKDLPSPIERTISKIKGLVRAPQVYILPPPAEQLSRKDVSLTCLVVGFNPGDISVEWTSNGHTEENYKDTAPVLDSDGSYFIYSKLNMKTSKWEKTDSFSCNVRHEGLKNYYLKKTISRSPGK light: ETTVTQSPASLSMTIGEKVTIRCITSTDIDDDMNWYRKKPGQPPKLLISEGNTLRPGVPSRFSSSGYGTDFVFTIENMLSEDVADYYCLQSDNLPLTFGAGTKLELKRADAAPTVSIFPPSSEQLTSGGASVVCFLNNFYPKDINVKWKIDGSERQNGVLNSWTDQDSKDSTYSMSSTLTLTKDEYERHNSYTCEATHKTSTSPIVKSFNRNEC",competition with SNGmB1 antibody for binding to GV27 peptide / ER-α36,[1],compete against SNGmB1 antibody
same,metastasis of lung tumor,"[2]; nude mice, 20 mg/kg by tail vein every 3 or 4 days for 18 days, with tamoxifen 1 mg/kg",prevents the metastasis of lung tumor
same,ALDH1 in lung metastatic foci (immunohistochemistry),"[2]; tamoxifen administrated tumor-bearing nude mice, versus control IgG",decreased
same,inhibition of tumor growth,[3],inhibit tumor growth in a dose-dependent manner; also recorded: inhibited tumor cell growth in a does-dependent manner
same,detection of ER-α36 protein expression in human tumor tissues,[4],detected both membrane bound and cytoplasmic expression
same,binding to MCF7 cells (FACS),[5],specific binding
same,binding to MHCC97H cells (FACS),[6],specific binding
same,binding to SKBR3 cells (FACS),[7],specific binding
